We go through 6 sequences from the supplement of paper PMC5998384.

Data set [1] relates to HeLa Kyoto. The experiment in a line: solubility change mitosis vs G1/S (difference of NP-40 vs SDS log2 ratios) (log2 ratio difference); higher = more soluble in mitosis.
The test system of data set [2] is HeLa Kyoto. The experiment in a line: solubility in G1/S (NP-40 vs SDS abundance) (log2 ratio); higher = more soluble. The settings on record: cell cycle stage: G1/S.
Data set [3] deals with HeLa Kyoto. Kind of data set: thermal stability score vs G1/S (z-score of summed log2 fold changes over temperatures); higher = more thermally stable than in G1/S.
Data set [4] deals with HeLa Kyoto. Kind of data set: melting temperature (median over replicates), in situ; higher = more thermally stable.
[5] abbreviates: cell cycle stage: early G1 (4.5 h after nocodazole release).
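Wherever melting temperature (median over replicates), in situ is given: HeLa Kyoto cells synchronized by double thymidine or nocodazole block, proteins quantified by TMT10plex mass spectrometry, three independent biological replicates.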
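Wherever solubility change mitosis vs G1/S (difference of NP-40 vs SDS log2 ratios) is given: synchronized HeLa Kyoto cells (double thymidine block for G1/S, nocodazole release for mitosis), protein amounts in NP-40 versus SDS lysates quantified by mass spectrometry, three biological replicates.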
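Wherever solubility in G1/S (NP-40 vs SDS abundance) is given: HeLa Kyoto cells arrested at G1/S by double thymidine block, proteins quantified by TMT10plex mass spectrometry in mild NP-40 versus SDS extracts, three biological replicates.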
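Wherever thermal stability score vs G1/S (z-score of summed log2 fold changes over temperatures) is given: synchronized HeLa Kyoto cells, proteins quantified by TMT10plex mass spectrometry, three biological replicates, mitosis taken 0.5 h after nocodazole release, G1/S directly after double thymidine block.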

As to “MGTKAQVERKLLCLFILAILLCSLALGSVTVHSSEPEVRIPENNPVKLSCAYSGFSSPRVEWKFDQGDTTRLVCYNNKITASYEDRVTFLPTGITFKSVTREDTGTYTCMVSEEGGNSYGEVKVKLIVLVPPSKPTVNIPSSATIGNRAVLTCSEQDGSPPSEYTWFKDGIVMPTNPKSTRAFSNSSYVLNPTTGELVFDPLSASDTGEYSCEARNGYGTPMTSNAVRMEAVERNVGVIVAAVLVTLILLGILVFGIWFAYSRGHFDRTKKGTSSKKVIYSQPSARSEGEFKQTSSFLV [F11R]”, the “solubility change mitosis (log2)” value in data set [1] is -0.139. In data set [2], the “solubility in G1/S (log2)” value worked out at 0.284. Also, the thermal stability score in data set [3] (setting [5]) was -2.07; in data set [3] (cell cycle stage: mitosis), -2.09. In addition, the melting temperature amounted to 58.9 °C in data set [4] (cell cycle stage: G1/S) and 59.5 °C in data set [4] (cell cycle stage: mitosis).
For the sequence “MGTPASGRKRTPVKDRFSAEDEALSNIAREAEARLAAKRAARAEARDIRMRELERQQKEYSLHSFDRKWGQIQKWLEDSERARYSHRSSHHRPYLGVEDALSIRSVGSHRYDMFKDRSSRLSSLNHSYSHSHGMKKRSSDSHKDLLSGLYFDQRNYSSLRHSKPTSAYYTRQSSSLYSDPLATYKSDRASPTANSGLLRSASLASLYNGGLYNPYGPRTPSECSYYSSRISSARSSPGFTNDDTASIVSSDRASRGRRESVVSAADYFSRSNRRGSVVSEVDDISIPDLSSLDEKSDKQYAENYTRPSSRNSASATTPLSGNSSRRGSGDTSSLIDPDTSLSELRDIYDLKDQIQDVEGRYMQGLKELKESLSEVEEKYKKAMVSNAQLDNEKNNLIYQVDTLKDVIEEQEEQMAEFYRENEEKSKELERQKHMCSVLQHKMEELKEGLRQRDELIEEKQRMQQKIDTMTKEVFDLQETLLWKDKKIGALEKQKEYIACLRNERDMLREELADLQETVKTGEKHGLVIIPDGTPNGDVSHEPVAGAITVVSQEAAQVLESAGEGPLDVRLRKLAGEKEELLSQIRKLKLQLEEERQKCSRNDGTVGDLAGLQNGSDLQFIEMQRDANRQISEYKFKLSKAEQDITTLEQSISRLEGQVLRYKTAAENAEKVEDELKAEKRKLQRELRTALDKIEEMEMTNSHLAKRLEKMKANRTALLAQQ [LRRFIP2]”, the “solubility change mitosis (log2)” value in data set [1] came to 0.251. In data set [2], the “solubility in G1/S (log2)” value stood at 0.672. The values for the thermal stability score in data set [3] (setting [5]) and in data set [3] (cell cycle stage: mitosis) were -3.39 and -4.14, respectively. The melting temperature in data set [4] (cell cycle stage: G1/S) was 53.3 °C; in data set [4] (cell cycle stage: mitosis) it was 53.7 °C.
Turning to “MGTPKPRILPWLVSQLDLGQLEGVAWVNKSRTRFRIPWKHGLRQDAQQEDFGIFQAWAEATGAYVPGRDKPDLPTWKRNFRSALNRKEGLRLAEDRSKDPHDPHKIYEFVNSGVGDFSQPDTSPDTNGGGSTSDTQEDILDELLGNMVLAPLPDPGPPSLAVAPEPCPQPLRSPSLDNPTPFPNLGPSENPLKRLLVPGEEWEFEVTAFYRGRQVFQQTISCPEGLRLVGSEVGDRTLPGWPVTLPDPGMSLTDRGVMSYVRHVLSCLGGGLALWRAGQWLWAQRLGHCHTYWAVSEELLPNSGHGPDGEVPKDKEGGVFDLGPFIVDLITFTEGSGRSPRYALWFCVGESWPQDQPWTKRLVMVKVVPTCLRALVEMARVGGASSLENTVDLHISNSHPLSLTSDQYKAYLQDLVEGMDFQGPGES [IRF3]”, in data set [1], the “solubility change mitosis (log2)” value is 0.174. Besides, the “solubility in G1/S (log2)” value in data set [2] was -0.0358. For the same sequence, the figures for the thermal stability score in data set [3] (setting [5]) and in data set [3] (cell cycle stage: mitosis) were 0.111 and 1.23, respectively. The melting temperature came out at 51.4 °C in data set [4] (cell cycle stage: G1/S) and 51.7 °C in data set [4] (cell cycle stage: mitosis).
Take “MGTRDDEYDYLFKVVLIGDSGVGKSNLLSRFTRNEFNLESKSTIGVEFATRSIQVDGKTIKAQIWDTAGQERYRAITSAYYRGAVGALLVYDIAKHLTYENVERWLKELRDHADSNIVIMLVGNKSDLRHLRAVPTDEARAFAEKNNLSFIETSALDSTNVEEAFKNILTEIYRIVSQKQIADRAAHDESPGNNVVDISVPPTTDGQKPNKLQCCQNL [RAB11B]”: in data set [1], the “solubility change mitosis (log2)” value was -0.0727. Further, the “solubility in G1/S (log2)” value in data set [2] is 0.136. Also, the results for the thermal stability score in data set [3] (setting [5]) and in data set [3] (cell cycle stage: mitosis) were 0.344 and -0.699, respectively. Moreover, the melting temperature in data set [4] (cell cycle stage: G1/S) amounted to 57.1 °C; in data set [4] (cell cycle stage: mitosis), 57.5 °C.
For “MGVEGCTKCIKYLLFVFNFVFWLAGGVILGVALWLRHDPQTTNLLYLELGDKPAPNTFYVGIYILIAVGAVMMFVGFLGCYGAIQESQCLLGTFFTCLVILFACEVAAGIWGFVNKDQIAKDVKQFYDQALQQAVVDDDANNAKAVVKTFHETLDCCGSSTLTALTTSVLKNNLCPSGSNIISNLFKEDCHQKIDDLFSGKLYLIGIAAIVVAVIMIFEMILSMVLCCGIRNSSVY [CD81]”, the “solubility change mitosis (log2)” value in data set [1] was -0.0908. Further, the “solubility in G1/S (log2)” value in data set [2] is 0.0932. Further, the thermal stability score is 0.287 in data set [3] (setting [5]) and -0.69 in data set [3] (cell cycle stage: mitosis). In data set [4] (cell cycle stage: G1/S), the melting temperature was determined as 56.1 °C.
Regarding “MGVWLNKDDYIRDLKRIILCFLIVYMAILVGTDQDFYSLLGVSKTASSREIRQAFKKLALKLHPDKNPNNPNAHGDFLKINRAYEVLKDEDLRKKYDKYGEKGLEDNQGGQYESWNYYRYDFGIYDDDPEIITLERREFDAAVNSGELWFVNFYSPGCSHCHDLAPTWRDFAKEVDGLLRIGAVNCGDDRMLCRMKGVNSYPSLFIFRSGMAPVKYHGDRSKESLVSFAMQHVRSTVTELWTGNFVNSIQTAFAAGIGWLITFCSKGGDCLTSQTRLRLSGMLDGLVNVGWMDCATQDNLCKSLDITTSTTAYFPPGATLNNKEKNSILFLNSLDAKEIYLEVIHNLPDFELLSANTLEDRLAHHRWLLFFHFGKNENSNDPELKKLKTLLKNDHIQVGRFDCSSAPDICSNLYVFQPSLAVFKGQGTKEYEIHHGKKILYDILAFAKESVNSHVTTLGPQNFPANDKEPWLVDFFAPWCPPCRALLPELRRASNLLYGQLKFGTLDCTVHEGLCNMYNIQAYPTTVVFNQSNIHEYEGHHSAEQILEFIEDLMNPSVVSLTPTTFNELVTQRKHNEVWMVDFYSPWCHPCQVLMPEWKRMARTLTGLINVGSIDCQQYHSFCAQENVQRYPEIRFFPPKSNKAYHYHSYNGWNRDAYSLRIWGLGFLPQVSTDLTPQTFSEKVLQGKNHWVIDFYAPWCGPCQNFAPEFELLARMIKGKVKAGKVDCQAYAQTCQKAGIRAYPTVKFYFYERAKRNFQEEQINTRDAKAIAALISEKLETLRNQGKRNKDEL [DNAJC10]”, in data set [1], the “solubility change mitosis (log2)” value is -0.125. Further, in data set [2], the “solubility in G1/S (log2)” value is -0.000819. Also, the thermal stability score in data set [3] (setting [5]) came to 3.17; in data set [3] (cell cycle stage: mitosis) it was 4.65. In addition, the melting temperature in data set [4] (cell cycle stage: G1/S) turned out to be 54.7 °C; in data set [4] (cell cycle stage: mitosis), 55.4 °C.
